This passage reports Ki results from PMC3268006 (Journal of Molecular Biology, 2011).

B1: Fab A11 H R100aA (Fab, V domains shown)
VH: EVQLVQSGGGLVKPGGSLRLSCAASGFTFSSYAMSWVRQAPGKGLEWVSAISGSGGSTYYADSVKGRFTISRDNSKNTLYLQMSSLRAEDTAVYYCVKDLGIAAARFVSGAFDIWGQGTMVTVSS
VL: EIVLTQSPGTLSLSPGERATLSCRASQSVSSSYLAWYQQKPGQAPRLLIYGASTRATGIPARFSGSGSGTDFTLTINSLEPEDFAVYYCQQRSNWPPGYTFGQGTKVEIT
B2: Fab A11 H R100bA (Fab, V domains shown)
VH: EVQLVQSGGGLVKPGGSLRLSCAASGFTFSSYAMSWVRQAPGKGLEWVSAISGSGGSTYYADSVKGRFTISRDNSKNTLYLQMSSLRAEDTAVYYCVKDLGIAARAFVSGAFDIWGQGTMVTVSS
VL: EIVLTQSPGTLSLSPGERATLSCRASQSVSSSYLAWYQQKPGQAPRLLIYGASTRATGIPARFSGSGSGTDFTLTINSLEPEDFAVYYCQQRSNWPPGYTFGQGTKVEIT
B3: Fab A11 H R100bK (Fab, V domains shown)
VH: EVQLVQSGGGLVKPGGSLRLSCAASGFTFSSYAMSWVRQAPGKGLEWVSAISGSGGSTYYADSVKGRFTISRDNSKNTLYLQMSSLRAEDTAVYYCVKDLGIAARKFVSGAFDIWGQGTMVTVSS
VL: EIVLTQSPGTLSLSPGERATLSCRASQSVSSSYLAWYQQKPGQAPRLLIYGASTRATGIPARFSGSGSGTDFTLTINSLEPEDFAVYYCQQRSNWPPGYTFGQGTKVEIT
B4: Fab S4 (Fab, V domains shown)
VH: EVQLVQSGAEVKKPGSSVKVSCKASGGTFSSYAISWVRQAGQGLEWMGGIIPIFGTANYAQKFQGRVTITADESTSTAYMELSSLRSEDTAVYYCARTFHIRRYRSGYYDKMDHWGQGTLVTVSS
VL: VLTQPPSVSGAPGQRVTISCSGSSSNIGSNYVSWYQQKPGTAPKLLIYDNNQRPSGVPDRFSGSKSGTSAVLAITGLQSEDEADYYCQSRDISQYVFGGGTKLTVL
B5: Fab S4 H R100bA (Fab, V domains shown)
VH: EVQLVQSGAEVKKPGSSVKVSCKASGGTFSSYAISWVRQAGQGLEWMGGIIPIFGTANYAQKFQGRVTITADESTSTAYMELSSLRSEDTAVYYCARTFHIRRYASGYYDKMDHWGQGTLVTVSS
VL: VLTQPPSVSGAPGQRVTISCSGSSSNIGSNYVSWYQQKPGTAPKLLIYDNNQRPSGVPDRFSGSKSGTSAVLAITGLQSEDEADYYCQSRDISQYVFGGGTKLTVL
B6: Fab S4 H R100bK (Fab, V domains shown)
VH: EVQLVQSGAEVKKPGSSVKVSCKASGGTFSSYAISWVRQAGQGLEWMGGIIPIFGTANYAQKFQGRVTITADESTSTAYMELSSLRSEDTAVYYCARTFHIRRYKSGYYDKMDHWGQGTLVTVSS
VL: VLTQPPSVSGAPGQRVTISCSGSSSNIGSNYVSWYQQKPGTAPKLLIYDNNQRPSGVPDRFSGSKSGTSAVLAITGLQSEDEADYYCQSRDISQYVFGGGTKLTVL

Chain of matriptase (MT-SP1), human protease domain (Q9Y5Y6 615-855): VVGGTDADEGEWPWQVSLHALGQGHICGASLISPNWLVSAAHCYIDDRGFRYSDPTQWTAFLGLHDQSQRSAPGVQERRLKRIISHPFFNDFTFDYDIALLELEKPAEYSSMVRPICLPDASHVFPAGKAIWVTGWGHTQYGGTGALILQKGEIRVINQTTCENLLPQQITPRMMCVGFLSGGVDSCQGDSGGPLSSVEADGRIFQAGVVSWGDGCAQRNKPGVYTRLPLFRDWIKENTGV

The experiment concerns the target matriptase (MT-SP1), human protease domain (human, UniProt Q9Y5Y6). Description: steady-state enzyme inhibition kinetics.
The molecule B1 yielded a Ki of 1.5 nM.

In the case of B2, the affinity, expressed as Ki, was 180 nM.

Turning to B3, the Ki turned out to be 180 nM.

The molecule B4 registered an inhibition constant (Ki) of 1 nM.

Turning to B5, the affinity corresponds to a Ki of 93 nM.

B6 returned a Ki of 110 nM.

For orientation: Ki means the dissociation constant of the complex between target and ligand, obtained from inhibition or displacement. The low end stands for higher affinity, the high end for lower affinity.
